The chains are these.
B1: TPR t1 (parent)
chain: GACCAAUCUGCCCUCAGAGCUCGAGAACAUCUUCGGAUGCAGAGGAGGCAGGCUUCGGUGGCGCGAUAGCGCCAACGUCCUCAACCUCCAAUGCAUCCCACCACAUGAUGAUGCCUGAAGAGCCUUGGUUUUUUG

The variants in this series derive from B1. The series is described as follows: polymerase ribozyme fitness, log enrichment relative to wild type (log ratio); higher = more active; in vitro selection for triplet polymerase activity. The method in brief:
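Mutant libraries for each subunit of a heterodimeric triplet polymerase ribozyme were made by PCR and then transcribed. Each library underwent one round of in vitro selection in triplicate: annealing with a biotinylated primer, the partner subunit and triplets, frozen incubation at −7 °C, gel excision of extended constructs, streptavidin-bead capture and RT-PCR. Input and output libraries were Illumina-sequenced, and only genotypes with ≥10 input reads and ≥1 read per output were kept. Fitness is the logarithm, base 2, of genotype enrichment over wild-type enrichment, computed from inverse-variance-weighted replicate averages.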
Take C64G G113A: the “polymerase ribozyme fitness (log ratio)” value was -6.17.

On to C8G C13G C15G C34A A46C C88U C123U, for which the “polymerase ribozyme fitness (log ratio)” value was -5.49.

For C20A A68G U78C C123U, the “polymerase ribozyme fitness (log ratio)” value was -4.98.

Consider C4U G10U, for which the “polymerase ribozyme fitness (log ratio)” value was -0.515.

Consider U7G C31U, for which the “polymerase ribozyme fitness (log ratio)” value is -3.68.

Turning to G61C C82A G110A G127A, the “polymerase ribozyme fitness (log ratio)” value is -3.64.

With C56U C73G C115U, the “polymerase ribozyme fitness (log ratio)” value was -3.6.

Regarding C20G A43C C53A A119G, the “polymerase ribozyme fitness (log ratio)” value is -5.03.

On to U9A C31G G60A C89G A111C G127A, for which the “polymerase ribozyme fitness (log ratio)” value is -7.

Turning to C80U A84U G135C, the “polymerase ribozyme fitness (log ratio)” value is -0.488.

For the variant U32A G47C C53G C86A, the “polymerase ribozyme fitness (log ratio)” value was -6.08.

A46U C88U A103G: the “polymerase ribozyme fitness (log ratio)” value was -7.61.

Consider C98A U112A, for which the “polymerase ribozyme fitness (log ratio)” value was -3.24.

For A41U C114A, the “polymerase ribozyme fitness (log ratio)” value is -3.03.

For the variant C80A G120C, the “polymerase ribozyme fitness (log ratio)” value is -2.2.

U33G A37U C49A C115U U131G: the “polymerase ribozyme fitness (log ratio)” value is -6.12.

In the case of A43U G45U G110U, the “polymerase ribozyme fitness (log ratio)” value was -3.95.

Take A43G A74U: the “polymerase ribozyme fitness (log ratio)” value is -2.25.

For the variant C8U A18U A37C G45U C53A G113A C124U, the “polymerase ribozyme fitness (log ratio)” value was -2.69.

For A83C U126A, the “polymerase ribozyme fitness (log ratio)” value is -1.84.

Take C15U U78G C114U: the “polymerase ribozyme fitness (log ratio)” value was -4.55.

With C82A G93C, the “polymerase ribozyme fitness (log ratio)” value is -1.06.

In the case of A2U C11G G48C G120U G128C, the “polymerase ribozyme fitness (log ratio)” value is -0.718.

For the variant G39A G69C U112A, the “polymerase ribozyme fitness (log ratio)” value was -1.42.

G63U A105U: the “polymerase ribozyme fitness (log ratio)” value was -3.37.

C64U C94U C102G: the “polymerase ribozyme fitness (log ratio)” value is -7.24.

A6G A29C G45U C102A C124U: the “polymerase ribozyme fitness (log ratio)” value is -5.32.

On to C22U C114G C124A U125G, for which the “polymerase ribozyme fitness (log ratio)” value is -5.84.

Turning to G61C C114U G127U, the “polymerase ribozyme fitness (log ratio)” value is -5.3.

As for U7A C11A, the “polymerase ribozyme fitness (log ratio)” value was -0.042.

Regarding C20U A29C G120A, the “polymerase ribozyme fitness (log ratio)” value was -3.64.

Consider C11A C13U, for which the “polymerase ribozyme fitness (log ratio)” value is -1.75.

On to A91C G113U, for which the “polymerase ribozyme fitness (log ratio)” value is -3.8.

In the case of C28U G117U, the “polymerase ribozyme fitness (log ratio)” value is -3.99.

On to U32C G113U C123U, for which the “polymerase ribozyme fitness (log ratio)” value is -3.78.

For the variant C31U C73G C89U, the “polymerase ribozyme fitness (log ratio)” value was -5.24.

With A37U G77U G93C, the “polymerase ribozyme fitness (log ratio)” value was -2.05.

On to C72G C86A, for which the “polymerase ribozyme fitness (log ratio)” value is -0.939.

For C12U C13G, the “polymerase ribozyme fitness (log ratio)” value is -0.258.

In the case of C11G C56A, the “polymerase ribozyme fitness (log ratio)” value is -0.185.

In the case of A43U G61A U92A G93C, the “polymerase ribozyme fitness (log ratio)” value is -1.44.

Turning to C15G U32C G36C C49G G120C, the “polymerase ribozyme fitness (log ratio)” value was -3.15.

Consider A50C G61C G127A, for which the “polymerase ribozyme fitness (log ratio)” value is -5.03.

As for U38C A43U C86A, the “polymerase ribozyme fitness (log ratio)” value is -2.82.

With A6G G10C U112A, the “polymerase ribozyme fitness (log ratio)” value was -0.0126.

Take C22U G93A: the “polymerase ribozyme fitness (log ratio)” value is -3.97.

For C12A U21A A46C C73A U87G, the “polymerase ribozyme fitness (log ratio)” value is -0.648.

For the variant A18C C73G C114U, the “polymerase ribozyme fitness (log ratio)” value was -3.9.

As for G69U C80G C98A U130G, the “polymerase ribozyme fitness (log ratio)” value is -7.2.

For C82A C88A U96A, the “polymerase ribozyme fitness (log ratio)” value was -1.57.

Turning to C40A A50U C89U, the “polymerase ribozyme fitness (log ratio)” value is -1.95.

Consider C13U C31U A46G C72U, for which the “polymerase ribozyme fitness (log ratio)” value is -4.32.

Consider C98U U130G, for which the “polymerase ribozyme fitness (log ratio)” value is -0.947.

For the variant C3A C64G C76U G110C, the “polymerase ribozyme fitness (log ratio)” value is -6.8.

As to A83C G93A G117U, the “polymerase ribozyme fitness (log ratio)” value was -2.52.

With C102G, the “polymerase ribozyme fitness (log ratio)” value was -5.93.

Regarding C102U, the “polymerase ribozyme fitness (log ratio)” value is -1.71.

For C40U G60U, the “polymerase ribozyme fitness (log ratio)” value is -0.21.

Turning to G17U G57A C101A G107U G120C G127A U132C, the “polymerase ribozyme fitness (log ratio)” value was -5.32.

C34G G45C G69A A90U U92A G113A: the “polymerase ribozyme fitness (log ratio)” value is -7.28.

Regarding G39U G63U A121U G135A, the “polymerase ribozyme fitness (log ratio)” value worked out at 0.925.

For A43G G113A, the “polymerase ribozyme fitness (log ratio)” value was -2.18.

In the case of C12A G48A, the “polymerase ribozyme fitness (log ratio)” value was -0.767.

For the variant G36C U126G, the “polymerase ribozyme fitness (log ratio)” value is -3.08.

Turning to C13G G45C C53U G63U C88A, the “polymerase ribozyme fitness (log ratio)” value is -3.62.

As to C8A C124U, the “polymerase ribozyme fitness (log ratio)” value amounted to 1.95.

As to G60A C72G, the “polymerase ribozyme fitness (log ratio)” value is -1.01.

On to U7G C13A A37C G52A G69U U92A A105U, for which the “polymerase ribozyme fitness (log ratio)” value was -4.57.

Turning to U9G G23A C31U U38A C104A U112A A121C U126G, the “polymerase ribozyme fitness (log ratio)” value was -6.73.

Consider U32A C101U, for which the “polymerase ribozyme fitness (log ratio)” value is -4.58.

With C62U C99U, the “polymerase ribozyme fitness (log ratio)” value was -3.59.

Regarding A24G C56U U125G, the “polymerase ribozyme fitness (log ratio)” value was -2.02.

In the case of C22G G69A C124A, the “polymerase ribozyme fitness (log ratio)” value is -3.93.

On to A29U C56U G120C G127A, for which the “polymerase ribozyme fitness (log ratio)” value is -2.48.

For the variant A46C C72U U78C G93U G122A U133G, the “polymerase ribozyme fitness (log ratio)” value is -3.05.

G63C C79G C123U C124G: the “polymerase ribozyme fitness (log ratio)” value is 0.0911.

Take G10U A37C C53G A95G: the “polymerase ribozyme fitness (log ratio)” value is -0.638.

In the case of A18U A26G G71U G120A G127U, the “polymerase ribozyme fitness (log ratio)” value is -5.55.

For the variant G39U A43U G52C C73G C94A C97G G110C, the “polymerase ribozyme fitness (log ratio)” value was -7.55.

Take G60U A84G C86U G135C: the “polymerase ribozyme fitness (log ratio)” value is -0.459.

In the case of C8A C12U C13G C98U, the “polymerase ribozyme fitness (log ratio)” value is -1.16.

On to C49G A103U, for which the “polymerase ribozyme fitness (log ratio)” value is -5.7.

Turning to C13U A66C U106A, the “polymerase ribozyme fitness (log ratio)” value is -0.839.

These data come from the RNAGym collection of RNA variant scans (doi:10.1073/pnas.2313332121).
